Key:
MERTK = MERTK (UniProt Q12866); assay: phosphorylation enrichment, bacterial display (enrichment ratio); higher = better substrate or ligand; peptides without Tyr show the background
Fer (mouse) = assay: as above
Jak2 = Jak2 (UniProt O60674); assay: as above
Fyn = Fyn (UniProt P06241); assay: as above
FGFR3 = FGFR3 (UniProt P22607); assay: as above
EPHB2 = EPHB2 (UniProt P29323); assay: as above
EPHB1 = EPHB1 (UniProt P54762); assay: as above
Hck = Hck (UniProt P08631); assay: as above
AncSZ = assay: as above
Fes = Fes (UniProt P07332); assay: as above
Chain of Fes (P07332 whole entry, looked up): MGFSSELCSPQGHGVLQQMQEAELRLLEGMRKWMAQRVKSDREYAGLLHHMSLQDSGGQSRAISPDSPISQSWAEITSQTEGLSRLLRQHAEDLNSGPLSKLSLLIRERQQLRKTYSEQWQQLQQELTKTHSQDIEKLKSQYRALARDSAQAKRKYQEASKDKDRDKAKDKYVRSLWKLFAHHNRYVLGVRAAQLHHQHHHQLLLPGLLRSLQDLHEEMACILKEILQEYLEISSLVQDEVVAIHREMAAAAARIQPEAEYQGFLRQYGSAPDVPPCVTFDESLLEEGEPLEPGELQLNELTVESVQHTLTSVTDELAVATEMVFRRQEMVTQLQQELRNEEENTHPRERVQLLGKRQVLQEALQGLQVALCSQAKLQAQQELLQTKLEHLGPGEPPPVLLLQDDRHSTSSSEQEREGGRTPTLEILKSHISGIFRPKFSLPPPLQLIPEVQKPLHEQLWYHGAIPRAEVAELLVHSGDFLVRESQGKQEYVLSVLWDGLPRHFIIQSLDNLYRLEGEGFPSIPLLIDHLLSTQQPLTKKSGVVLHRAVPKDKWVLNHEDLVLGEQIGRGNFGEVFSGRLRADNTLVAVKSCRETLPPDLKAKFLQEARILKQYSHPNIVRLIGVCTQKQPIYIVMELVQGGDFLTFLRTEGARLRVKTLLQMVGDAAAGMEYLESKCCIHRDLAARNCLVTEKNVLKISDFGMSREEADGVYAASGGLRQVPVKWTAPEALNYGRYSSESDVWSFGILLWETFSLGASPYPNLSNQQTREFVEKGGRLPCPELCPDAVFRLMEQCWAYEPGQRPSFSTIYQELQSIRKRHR

FGFR1 = FGFR1 (UniProt P11362); assay: as above
Chain of FGFR1 (P11362 whole entry, looked up): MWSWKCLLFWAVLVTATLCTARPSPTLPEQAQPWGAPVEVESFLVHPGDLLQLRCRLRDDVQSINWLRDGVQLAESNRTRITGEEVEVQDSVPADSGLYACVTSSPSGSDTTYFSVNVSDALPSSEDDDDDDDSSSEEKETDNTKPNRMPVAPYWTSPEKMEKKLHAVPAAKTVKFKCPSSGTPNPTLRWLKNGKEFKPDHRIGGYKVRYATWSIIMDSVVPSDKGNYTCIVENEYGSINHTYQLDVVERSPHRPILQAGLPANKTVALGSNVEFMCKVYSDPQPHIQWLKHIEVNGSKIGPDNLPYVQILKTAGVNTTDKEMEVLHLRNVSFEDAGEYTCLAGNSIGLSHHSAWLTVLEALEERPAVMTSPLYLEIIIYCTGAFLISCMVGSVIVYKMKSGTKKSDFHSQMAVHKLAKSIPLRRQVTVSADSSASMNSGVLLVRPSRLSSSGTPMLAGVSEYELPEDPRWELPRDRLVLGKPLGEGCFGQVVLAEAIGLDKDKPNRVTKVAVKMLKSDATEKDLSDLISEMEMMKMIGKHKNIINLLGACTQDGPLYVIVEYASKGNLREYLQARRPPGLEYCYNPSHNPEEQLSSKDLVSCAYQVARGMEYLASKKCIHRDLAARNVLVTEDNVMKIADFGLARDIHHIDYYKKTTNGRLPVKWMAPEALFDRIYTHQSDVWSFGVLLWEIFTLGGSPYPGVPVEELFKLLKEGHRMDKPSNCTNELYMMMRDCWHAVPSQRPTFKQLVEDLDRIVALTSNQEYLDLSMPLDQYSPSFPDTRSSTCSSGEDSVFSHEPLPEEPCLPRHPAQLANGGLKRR

c-Src = assay: as above
c-Abl (mouse) = assay: as above
SHP2-C SH2 = assay: SH2 binding enrichment of the phosphorylated peptide, bacterial display (enrichment ratio); higher = better substrate or ligand; peptides without Tyr show the background
c-Src SH2 = assay: as above
Grb2 SH2 = Grb2 SH2 (UniProt P62993); assay: as above
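For SH2 binding enrichment of the phosphorylated peptide, bacterial display in this document: peptide library displayed on the E. coli surface as eCPX fusions, selected cells deep-sequenced, score is each peptide's frequency after selection divided by its frequency in the input.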
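For phosphorylation enrichment, bacterial display in this document: 11-residue human phosphosite peptides and single-mutation variants displayed on the E. coli surface, counted by deep sequencing, each peptide's frequency after selection divided by its frequency in the unselected input library; frequency after pTyr selection over input frequency; kinase dosed for 20-30% of maximal phosphorylation in three min.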

Chain of Fyn (P06241 whole entry, looked up): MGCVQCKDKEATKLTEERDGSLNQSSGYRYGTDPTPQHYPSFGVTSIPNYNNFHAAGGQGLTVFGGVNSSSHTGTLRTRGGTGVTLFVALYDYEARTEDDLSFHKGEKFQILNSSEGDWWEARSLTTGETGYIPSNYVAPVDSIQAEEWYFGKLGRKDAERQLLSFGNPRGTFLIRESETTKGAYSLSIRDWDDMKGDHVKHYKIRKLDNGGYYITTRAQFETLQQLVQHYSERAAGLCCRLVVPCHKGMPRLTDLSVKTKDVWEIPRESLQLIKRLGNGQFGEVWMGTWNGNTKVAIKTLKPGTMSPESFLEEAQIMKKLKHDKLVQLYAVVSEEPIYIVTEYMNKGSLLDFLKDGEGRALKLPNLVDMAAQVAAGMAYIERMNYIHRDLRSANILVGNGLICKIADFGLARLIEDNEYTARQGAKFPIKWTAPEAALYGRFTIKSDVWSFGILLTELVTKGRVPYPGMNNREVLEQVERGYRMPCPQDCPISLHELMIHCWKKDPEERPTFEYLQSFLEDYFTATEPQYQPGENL
Chain of Hck (P08631 whole entry, looked up): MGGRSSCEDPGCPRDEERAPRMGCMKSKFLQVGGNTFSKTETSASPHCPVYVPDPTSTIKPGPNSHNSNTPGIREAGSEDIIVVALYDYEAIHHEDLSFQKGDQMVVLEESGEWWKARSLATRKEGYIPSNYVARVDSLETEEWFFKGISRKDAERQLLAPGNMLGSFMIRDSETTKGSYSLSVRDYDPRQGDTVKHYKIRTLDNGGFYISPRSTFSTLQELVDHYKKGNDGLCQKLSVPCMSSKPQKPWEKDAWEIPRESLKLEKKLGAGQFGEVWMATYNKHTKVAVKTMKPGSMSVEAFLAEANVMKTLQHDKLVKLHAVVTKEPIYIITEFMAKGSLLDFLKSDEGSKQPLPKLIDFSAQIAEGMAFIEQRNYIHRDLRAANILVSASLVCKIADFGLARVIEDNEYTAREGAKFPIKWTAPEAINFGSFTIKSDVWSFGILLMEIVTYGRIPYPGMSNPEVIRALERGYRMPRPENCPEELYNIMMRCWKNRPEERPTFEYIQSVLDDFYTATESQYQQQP
Chain of Jak2 (O60674 whole entry, looked up): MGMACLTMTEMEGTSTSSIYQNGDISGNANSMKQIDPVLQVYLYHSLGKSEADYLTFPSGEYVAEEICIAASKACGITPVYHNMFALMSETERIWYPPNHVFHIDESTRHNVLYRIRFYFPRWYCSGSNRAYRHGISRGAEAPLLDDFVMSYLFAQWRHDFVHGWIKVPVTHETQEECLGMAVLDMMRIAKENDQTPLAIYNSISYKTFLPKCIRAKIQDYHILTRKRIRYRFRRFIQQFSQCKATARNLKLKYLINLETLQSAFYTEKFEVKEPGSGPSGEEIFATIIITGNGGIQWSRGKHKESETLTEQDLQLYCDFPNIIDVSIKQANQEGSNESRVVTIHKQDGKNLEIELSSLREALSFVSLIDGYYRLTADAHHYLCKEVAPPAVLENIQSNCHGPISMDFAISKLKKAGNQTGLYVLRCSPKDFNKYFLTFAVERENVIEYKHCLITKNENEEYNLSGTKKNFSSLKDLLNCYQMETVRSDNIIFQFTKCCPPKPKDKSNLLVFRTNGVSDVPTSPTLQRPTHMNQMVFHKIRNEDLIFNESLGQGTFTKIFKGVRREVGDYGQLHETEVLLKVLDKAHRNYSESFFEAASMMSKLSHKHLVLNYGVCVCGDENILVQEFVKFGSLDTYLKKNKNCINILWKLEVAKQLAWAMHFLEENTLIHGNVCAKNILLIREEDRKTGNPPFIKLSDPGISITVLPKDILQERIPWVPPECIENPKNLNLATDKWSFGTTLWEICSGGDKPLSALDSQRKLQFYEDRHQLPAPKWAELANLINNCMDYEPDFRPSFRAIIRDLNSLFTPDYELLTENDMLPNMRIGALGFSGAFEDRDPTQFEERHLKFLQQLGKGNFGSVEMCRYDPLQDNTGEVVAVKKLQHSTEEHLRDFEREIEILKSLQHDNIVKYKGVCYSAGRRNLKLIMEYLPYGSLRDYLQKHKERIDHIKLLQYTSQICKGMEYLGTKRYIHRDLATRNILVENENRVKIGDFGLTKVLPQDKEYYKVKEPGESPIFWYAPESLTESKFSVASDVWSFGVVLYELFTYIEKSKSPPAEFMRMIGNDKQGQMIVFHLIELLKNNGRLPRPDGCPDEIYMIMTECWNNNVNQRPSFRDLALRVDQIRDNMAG
Chain of MERTK (Q12866 whole entry, looked up): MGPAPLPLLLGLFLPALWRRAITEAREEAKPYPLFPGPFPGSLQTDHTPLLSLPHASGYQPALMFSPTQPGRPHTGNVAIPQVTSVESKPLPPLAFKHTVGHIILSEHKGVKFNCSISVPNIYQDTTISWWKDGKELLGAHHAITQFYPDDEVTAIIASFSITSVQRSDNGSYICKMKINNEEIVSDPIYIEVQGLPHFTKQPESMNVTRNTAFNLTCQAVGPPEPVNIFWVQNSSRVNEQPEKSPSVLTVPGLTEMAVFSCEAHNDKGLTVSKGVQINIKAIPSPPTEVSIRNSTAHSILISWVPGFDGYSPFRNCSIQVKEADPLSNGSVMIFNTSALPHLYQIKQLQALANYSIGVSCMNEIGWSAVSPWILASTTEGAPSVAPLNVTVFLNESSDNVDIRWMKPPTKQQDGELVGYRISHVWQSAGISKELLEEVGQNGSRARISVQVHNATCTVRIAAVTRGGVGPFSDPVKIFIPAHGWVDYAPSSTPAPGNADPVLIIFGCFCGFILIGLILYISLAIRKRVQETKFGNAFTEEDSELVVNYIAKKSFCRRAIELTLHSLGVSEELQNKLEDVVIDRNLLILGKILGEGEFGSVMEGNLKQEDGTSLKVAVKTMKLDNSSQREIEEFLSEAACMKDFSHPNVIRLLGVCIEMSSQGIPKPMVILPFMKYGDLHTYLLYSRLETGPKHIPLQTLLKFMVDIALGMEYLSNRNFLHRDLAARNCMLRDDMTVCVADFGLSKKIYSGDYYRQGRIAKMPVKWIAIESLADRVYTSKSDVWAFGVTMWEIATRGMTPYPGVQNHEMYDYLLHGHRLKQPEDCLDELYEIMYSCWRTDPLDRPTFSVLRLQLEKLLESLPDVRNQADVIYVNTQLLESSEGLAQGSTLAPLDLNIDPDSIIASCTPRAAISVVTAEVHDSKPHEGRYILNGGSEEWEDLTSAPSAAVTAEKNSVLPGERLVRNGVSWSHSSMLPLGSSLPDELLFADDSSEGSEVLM

| Sequence | SH2 binding enrichment (SHP2-C SH2) | SH2 binding enrichment (c-Src SH2) | SH2 binding enrichment (Grb2 SH2) | phosphorylation enrichment (MERTK) | phosphorylation enrichment (Fer (mouse)) | phosphorylation enrichment (Jak2) | phosphorylation enrichment (Fyn) | phosphorylation enrichment (FGFR3) | phosphorylation enrichment (EPHB2) | phosphorylation enrichment (EPHB1) | phosphorylation enrichment (Hck) | phosphorylation enrichment (AncSZ) | phosphorylation enrichment (Fes) | phosphorylation enrichment (FGFR1) | phosphorylation enrichment (c-Src) | phosphorylation enrichment (c-Abl (mouse)) |
| --- | --- | --- | --- | --- | --- | --- | --- | --- | --- | --- | --- | --- | --- | --- | --- | --- |
| FLTQHYDAIPQ [ANG_Y38_K41I] | 0.927 | 13.9 | 0.809 | 2.46 | 9.86 | 0.608 | 0.586 | 0.866 | 0.51 | 0.715 | 2.88 | 0.885 | 0.855 | 0.639 | 0.678 | 0.611 |
| PRAEWYRDDVL [MYOM2_Y317] | 0.637 | 0.585 | 0.802 | 0.681 | 0.767 | 1.11 | 0.572 | 0.818 | 0.725 | 0.959 | 0.586 | 1.31 | 1.46 | 0.507 | 0.546 | 0.879 |
| REEKNYKLKET [BCLAF1_Y459] | 0.956 | 0.627 | 1.16 | 1.14 | 1.3 | 1.5 | 0.843 | 0.714 | 0.799 | 0.691 | 0.861 | 0.996 | 1.21 | 0.733 | 1.28 | 1.16 |
| LQTFHYHGHSM [PDHA1_Y289_R288H_YF] | 1.47 | 1.27 | 1.47 | 0.501 | 0.435 | 0.641 | 0.501 | 0.536 | 0.448 | 0.322 | 0.533 | 0.599 | 0.715 | 0.419 | 1.2 | 0.493 |
| TKYVAYIESQG [KDM4B_Y34_N29T] | 8.32 | 0.675 | 0.8 | 0.331 | 0.432 | 0.498 | 0.546 | 0.608 | 0.611 | 0.456 | 0.485 | 0.924 | 0.828 | 0.541 | 0.418 | 0.508 |
| GFAIVYGTIIL [GPR179_Y460] | 0.547 | 0.364 | 0.604 | 0.389 | 0.514 | 1.28 | 0.431 | 0.84 | 0.592 | 0.644 | 0.502 | 1.19 | 1.32 | 0.441 | 0.462 | 1.31 |
| ADCRYYAFPQM [GAMT_Y223] | 0.656 | 1.84 | 0.862 | 9.72 | 8.45 | 5.86 | 2.75 | 8.74 | 10.8 | 9.71 | 3.1 | 4.46 | 1.33 | 11 | 3.76 | 7.97 |
| GSTLSYFGLAT [P2RX7_Y343_A348T] | 0.751 | 0.595 | 0.893 | 0.637 | 0.545 | 5.4 | 0.639 | 1.36 | 0.5 | 0.635 | 0.687 | 1.09 | 0.912 | 1.36 | 0.595 | 0.998 |
| MSIWPYLQKID [MFSD8_Y63] | 0.997 | 0.71 | 0.838 | 0.302 | 0.362 | 0.627 | 0.329 | 0.599 | 0.472 | 0.667 | 0.468 | 0.789 | 0.854 | 0.422 | 0.323 | 0.699 |
| GRLPEYNTRIA [CCDC151_Y542] | 0.643 | 0.482 | 0.949 | 0.45 | 0.339 | 0.55 | 0.372 | 0.543 | 0.44 | 0.341 | 0.416 | 0.512 | 0.589 | 0.404 | 0.408 | 0.513 |
| APSHAYHRGVL [ANO1_Y981_G983R] | 0.899 | 0.679 | 0.988 | 0.38 | 0.411 | 0.534 | 0.424 | 0.472 | 0.355 | 0.363 | 0.385 | 0.507 | 0.583 | 0.395 | 0.426 | 0.51 |

Continued, in another order:

| SH2 binding enrichment (SHP2-C SH2) | SH2 binding enrichment (c-Src SH2) | SH2 binding enrichment (Grb2 SH2) | Sequence | phosphorylation enrichment (MERTK) | phosphorylation enrichment (Fer (mouse)) | phosphorylation enrichment (Jak2) | phosphorylation enrichment (Fyn) | phosphorylation enrichment (FGFR3) | phosphorylation enrichment (EPHB2) | phosphorylation enrichment (EPHB1) | phosphorylation enrichment (Hck) | phosphorylation enrichment (AncSZ) | phosphorylation enrichment (Fes) | phosphorylation enrichment (FGFR1) | phosphorylation enrichment (c-Src) | phosphorylation enrichment (c-Abl (mouse)) |
| --- | --- | --- | --- | --- | --- | --- | --- | --- | --- | --- | --- | --- | --- | --- | --- | --- |
| 0.371 | 0.568 | 0.784 | YNDSTYNQQLI [ZPLD1_Y198] | 0.435 | 0.491 | 0.612 | 0.479 | 0.471 | 0.465 | 0.521 | 0.506 | 0.801 | 0.738 | 0.495 | 0.51 | 0.533 |
| 1.49 | 0.646 | 0.944 | RGSQQYRALPV [TUBB8_Y281_T285P] | 0.525 | 0.434 | 0.789 | 0.655 | 0.546 | 0.563 | 0.533 | 0.388 | 0.618 | 0.686 | 0.803 | 0.588 | 0.694 |
| 1.37 | 0.625 | 1.01 | QFQLKYSETPF [SIX6OS1_Y129_YF] | 1.24 | 0.789 | 2.17 | 0.811 | 1.11 | 1.12 | 0.957 | 0.855 | 1.7 | 1.84 | 0.982 | 0.812 | 1.39 |
| 1.03 | 0.775 | 1.2 | AKKVFYVIETR [SHH_Y253] | 0.361 | 0.401 | 1.01 | 0.465 | 0.765 | 0.582 | 0.569 | 0.422 | 1.12 | 1.26 | 0.542 | 0.412 | 0.627 |
| 0.577 | 0.445 | 0.733 | SGDDGYAKDAK [TENM4_Y1530] | 0.386 | 0.494 | 0.456 | 0.564 | 0.562 | 0.623 | 0.454 | 0.584 | 0.836 | 0.741 | 0.501 | 0.409 | 0.456 |
| 0.604 | 0.465 | 1.02 | IENKLYGTSDP [RET_Y1062_M1064T] | 0.526 | 0.549 | 0.817 | 0.59 | 0.559 | 0.544 | 0.563 | 0.553 | 0.858 | 0.869 | 0.527 | 0.509 | 0.818 |
